Source: US10245299B2, “Autoassembling peptides for the treatment of pulmonary bulla” (3-D MATRIX, LTD., priority 2014, dated 2019)
Where no end group is shown, it is not given here.

Experiments:
Format in all cases: physicochemical
[1] = Rheological properties at adjusted salt ionic strength; conditions: for ionic strength adjustment up to which the rheological property of the solution increases (decreases above): 1% solutions, storage modulus at 1 rad/sec
Procedure: Based on the visual observation of the effect of salt ionic strength on the properties of the peptide solutions, the effect on the rheological properties of the peptide solutions after adjusting their ionic strength level with NaCl to 0.7 M (PuraMatrix®), 0.2 M (KLD12) or 0.02 M (IEIK13), which is closely below the critical ionic strength at which each peptide becomes cloudy, was evaluated. If the ionic strength levels with NaCl of peptide solutions are higher than 0.9 M (PuraMatrix®), 0.3 M (KLD12) or 0.03 M (IEIK13), the peptide solution begin phase separation becoming cloudy and weak. The rheological property of PuraMatrix®, KLD12 and IEIK13 solutions was higher after adjusting their ionic strength level with NaCl to 0.7 M (PuraMatrix®), 0.2 M (KLD12) or 0.02 M (IEIK13), The results are shown in FIG. 10 for KLD12 1%, FIG. 11 for IEIK13 1%, and FIG. 12 for PuraMatrix® 1%, respectively. Frequency sweep tests were performed from 1 rad/s to 10 rad/s at 1 Pa.
Based on the results of the effect on the rheological properties of the peptide solutions after adjusting their ionic strength level with NaCl to 0.7 M (PuraMatrix®), 0.2 M (KLD12) or 0.02 M (IEIK13), the effect on the rheological properties of the peptide solution at various salt ionic strengths was evaluated. […] The results are shown in FIG. 13 for PuraMatrix® 1% solution and in FIG. 14 for IEIK13 1% solution. Frequency sweep tests were performed from 1 rad/sec to 10 rad/sec at 1 Pa and the storage modulus at 1 rad/sec was selected for data.
Based on the results of the effect on the rheological properties of the peptide solutions after adjusting their ionic strength levels, the effect on the rheological properties of the peptide hydrogels after DMEM treatment for 10 min was evaluated. […] The results are shown in FIG. 15 for PuraMatrix® 1% hydrogels and in FIG. 16 for IEIK13 1% hydrogels, both after DMEM treatment for 10 min. Frequency sweep tests were performed from 1 rad/sec to 10 rad/sec at 1 Pa and the storage modulus at 1 rad/sec was selected for data.
Based on the results of the effect on the rheological properties of the peptide solutions and hydrogels after adjusting their ionic strength levels with NaCl, the effect of various salts (KCl, MgCl2, and CaCl2) was also evaluated. The rheological property of PuraMatrix® solutions increases with ionic strength adjustment at 0.15 M of all the salts. Increases of the rheological property of PuraMatrix® solutions with various salts were not predominantly different. However, increases of the rheological property of PuraMatrix® solutions may vary depending on the salting out constant, K of each salt. Constant K is a constant in Cohen's equation: log S=B−KI, where S is solubility, B is idealized solubility, K is salting out constant, and I is ionic strength. With a higher value of constant K and ionic strength of salts, solubility of the peptide may decrease resulting in strong peptide self-assembly with increased hydrophobic effect and higher rheological properties of the peptide solution. The constant K of NaCl may be higher than the other salts. […] The results are shown in FIG. 17 for PuraMatrix® 1% solution before DMEM treatment, and in FIG. 18 for PuraMatrix® 1% hydrogels after DMEM treatment for 10 min.
In accordance with one or more embodiments, IEIK13, KLD12, and PuraMatrix® may be dissolved both in salt buffer such as NaCl and at an elevated pH level adjusted with alkali salt buffer such as NaOH to keep their salt ionic strength under their critical salt points as well as their pH level to about 2.5˜4.0, so that they may have stiffer properties. With respect to PuraMatrix®, […] and IEIK13, the peptide solutions are still clear with 0.9% NaCl (ionic strength: 0.15 M) at pH 3.4 adjusted with NaOH. […] The effect of salt ionic strength and pH adjustment on the rheological properties of PuraMatrix® 2.5% solution are shown in FIG. 20. […]

[2] = Gelation of peptide solutions after saline buffer treatment, time sweep; conditions: saline buffer (0.15 M of NaCl); IEIK13 1.5%, KLD12 1.5%, PuraMatrix® 2.5% solution
Procedure: The effect of salt ionic strength level surrounding peptide solution on the properties of peptide solutions was evaluated to identify the possibility of peptide gelation when the peptide solution is placed into the environment where salt ionic strength level is high. […] Without pH effect, the effect of saline treatment on gelation of peptide solutions were evaluated. […] This is because IEIK13 is much more sensitive to salt ionic strength levels. Fast gelation of IEIK13 at the salt ionic strength level similar to body fluid isotonic salt level may generally improve its function and gelation speed for various clinical applications. The results are shown in FIG. 19 for IEIK13, KLD12 and PuraMatrix® solutions. Time sweep tests were performed at 1 rad/sec and at 1 Pa with 20 mm plates and 500 μm gap distance. […]

[3] = pH and appearance of 2.5% peptide solutions after adding 0.1 N NaOH
Procedure: To adjust the pH level of the peptide solutions by way of example, 0.1 N NaOH was added to 2 mL of 2.5% peptide solutions and their pH and appearance were measured.

[4] = 1% hydrogels after DMEM treatment for 10 min
[5] = 0.1N NaOH 150 μL/mL, conc. 2.17%, pH 2.7
[6] = 0.1N NaOH 350 μL/mL, conc. 1.85%, pH 4.5
[7] = 0.1N NaOH added in 2.5% solution 0 μL/mL, conc. 2.5%
[8] = 0.1N NaOH added in 2.5% solution 50 μL/mL, conc. 2.38%
[9] = 0.1N NaOH added in 2.5% solution 100 μL/mL, conc. 2.27%
[10] = 0.1N NaOH added in 2.5% solution 150 μL/mL, conc. 2.17%
[11] = 0.1N NaOH added in 2.5% solution 200 μL/mL, conc. 2.08%
[12] = 0.1N NaOH added in 2.5% solution 250 μL/mL, conc. 2.0%
[13] = 0.1N NaOH added in 2.5% solution 275 μL/mL, conc. 1.96%
[14] = 0.1N NaOH added in 2.5% solution 300 μL/mL, conc. 1.92%
[15] = 0.1N NaOH added in 2.5% solution 350 μL/mL, conc. 1.85%

Arg-Ala-Asp-Ala-Arg-Ala-Asp-Ala-Arg-Ala-Asp-Ala-Arg-Ala-Asp-Ala [PuraMatrix®]
ionic strength adjustment up to which the rheological property of hydrogels increased (decreases above) [1, 4]: up to 0.7 M | rheological property of hydrogels with ionic strength adjustment with various salts ([1]; 1% hydrogels after DMEM treatment for 10 min, 0.15 M ionic strength): comparable to increases of the rheological property of PuraMatrix® solutions with various salts | rheological property of solutions with NaCl compared with other salts ([1]; 1% solution, 0.15 M ionic strength): slightly higher than those with KCl and CaCl2 | rheological property of solutions with ionic strength adjustment ([1]; 1% solution, 0.15 M ionic strength of all the salts (NaCl, KCl, MgCl2, CaCl2)): increases | ionic strength adjustment up to which the rheological property of the solution increases (decreases above) [1]: up to 0.7 M | rheological property ([1]; 2.5% solution with 0.9% NaCl (ionic strength: 0.15 M) at pH 3.4): stiffer than those of PuraMatrix control and PuraMatrix with only NaCl 0.9% | ionic strength level with NaCl above which the solution begins phase separation becoming cloudy and weak [1]: higher than 0.9 M | gelation after saline buffer treatment [2]: no or negligible gelation | Appearance ([3]; 0.1N NaOH 0 μL/mL, conc. 2.5%, pH 2.2): Clear, thick gel | Appearance ([3]; 0.1N NaOH 50 μL/mL, conc. 2.38%, pH 2.3): Clear, thick gel | Appearance ([3]; 0.1N NaOH 100 μL/mL, conc. 2.27%, pH 2.4): Clear, thick gel | Appearance [3, 5]: Clear, thick, | Appearance ([3]; 0.1N NaOH 200 μL/mL, conc. 2.08%, pH 2.9): Clear, thick, | Appearance ([3]; 0.1N NaOH 250 μL/mL, conc. 2.0%, pH 3.2): Clear, thick, | Appearance ([3]; 0.1N NaOH 275 μL/mL, conc. 1.96%, pH 3.4): Clear, thick, | Appearance ([3]; 0.1N NaOH 300 μL/mL, conc. 1.92%, pH 3.6): Slightly cloudy, | Appearance [3, 6]: Cloudy, phase- | Peptide solution pH [3, 7]: 2.2 | Peptide solution pH [3, 8]: 2.3 | Peptide solution pH [3, 9]: 2.4 | Peptide solution pH [3, 10]: 2.7 | Peptide solution pH [3, 11]: 2.9 | Peptide solution pH [3, 12]: 3.2 | Peptide solution pH [3, 13]: 3.4 | Peptide solution pH [3, 14]: 3.6 | Peptide solution pH [3, 15]: 4.5 | Appearance ([3]; pH 7.0): Cloudy, phase-

Ile-Glu-Ile-Lys-Ile-Glu-Ile-Lys-Ile-Glu-Ile-Lys-Ile [IEIK13]
rheological property of hydrogels with ionic strength adjustment [1, 4]: did not significantly change with ionic strength adjustment up to 0.025 M, while decreases above 0.03 M | ionic strength adjustment up to which the rheological property of the solution increases (decreases above) [1]: up to 0.03 M | ionic strength level with NaCl above which the solution begins phase separation becoming cloudy and weak [1]: > 0.03 M | gelation after saline buffer treatment [2]: fast gelation | Appearance ([3]; 0.1N NaOH 0 μL/mL, conc. 2.5%, pH 1.8): Clear, thick gel | Appearance ([3]; 0.1N NaOH 50 μL/mL, conc. 2.38%, pH 2.1): Clear, thick gel | Appearance ([3]; 0.1N NaOH 100 μL/mL, conc. 2.27%, pH 2.2): Clear, thick gel | Appearance [3, 5]: Clear, thick gel, | Appearance ([3]; 0.1N NaOH 200 μL/mL, conc. 2.08%, pH 3.0): Clear, thick gel, | Appearance ([3]; 0.1N NaOH 250 μL/mL, conc. 2.0%, pH 3.3): Clear, thick gel, | Appearance ([3]; 0.1N NaOH 275 μL/mL, conc. 1.96%, pH 3.7): Clear, thick, | Appearance ([3]; 0.1N NaOH 300 μL/mL, conc. 1.92%, pH 4.0): Slightly cloudy, | Appearance [3, 6]: Cloudy, brittle gel | Appearance ([3]; 0.1N NaOH 400 μL/mL, conc. 1.79%, pH 5.4): Cloudy, phase- | Peptide solution pH [3, 7]: 1.8 | Peptide solution pH [3, 8]: 2.1 | Peptide solution pH [3, 9]: 2.2 | Peptide solution pH [3, 10]: 2.7 | Peptide solution pH [3, 11]: 3.0 | Peptide solution pH [3, 12]: 3.3 | Peptide solution pH [3, 13]: 3.7 | Peptide solution pH [3, 14]: 4.0 | Peptide solution pH [3, 15]: 4.5 | Peptide solution pH ([3]; 0.1N NaOH added in 2.5% solution 400 μL/mL, conc. 1.79%): 5.4 | Appearance ([3]; pH 7.0): Cloudy, phase-

KLDLKLDLKLDL [KLD12]
ionic strength level with NaCl above which the solution begins phase separation becoming cloudy and weak [1]: > 0.3 M | gelation after saline buffer treatment [2]: no or negligible gelation | Appearance ([3]; 0.1N NaOH 0 μL/mL, conc. 2.5%, pH 2.1): Clear, thick gel | Appearance ([3]; 0.1N NaOH 50 μL/mL, conc. 2.38%, pH 2.4): Clear, thick gel | Appearance ([3]; 0.1N NaOH 100 μL/mL, conc. 2.27%, pH 2.6): Clear, thick gel | Appearance ([3]; 0.1N NaOH 250 μL/mL, conc. 2.0%, pH 4.0): Slightly cloudy, | Appearance ([3]; 0.1N NaOH 300 μL/mL, conc. 1.92%, pH 4.7): Cloudy, brittle gel | Appearance ([3]; 0.1N NaOH 350 μL/mL, conc. 1.85%, pH 5.2): Cloudy, phase- | Peptide solution pH [3, 7]: 2.1 | Peptide solution pH [3, 8]: 2.4 | Peptide solution pH [3, 9]: 2.6 | Peptide solution pH [3, 10]: 2.9 | Peptide solution pH [3, 11]: 3.3 | Peptide solution pH ([3]; 0.1N NaOH added in 2.5% solution 225 μL/mL, conc. 2.04%): 3.6 | Peptide solution pH [3, 12]: 4.0 | Peptide solution pH [3, 14]: 4.7 | Peptide solution pH [3, 15]: 5.2 | Appearance ([3]; pH 7.0): Cloudy, phase-
